# Experimental data from the supplement of paper PMC10899765.
# System: MCF10A
# Test: 5+ nucleoli phenotype percent effect (relative to siNT 0% and siKIF11 100%); higher = more cells with five or more nucleoli
# Details: 20 nM; 72 h
# Description: (§1)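 After 72 h, cells were fixed and stained with Hoechst and anti-fibrillarin, and nucleoli per nucleus were counted with CellProfiler. Values are plate-adjusted percent effect for the one-nucleolus and 5+ nucleoli phenotypes, normalised to siNT (0%) and to the positive controls siNOL11 or siKIF11 (100%), as the mean of biological triplicates. Percent viability is the nuclei count relative to siNT.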
row,Sequence,5+ nucleoli phenotype percent effect
1,CUAUUAAGGACAUUUGUGAUUC [hsa-miR-4477a],-13.7%
2,UGACUGAGCUUCUCCCCACAG [hsa-miR-6857-3p],-17.1%
3,UCAAGGCCAGAGGUCCCACAGCA [hsa-miR-3922-5p],-12.7%
4,UCCGAACUCUCCAUUCCUCUGC [hsa-miR-6716-3p],35.3%
5,CACCGACUCUGUCUCCUGCAG [hsa-miR-6510-3p],-12.7%
6,CAGGGCAGAGGGCACAGGAAUCUGA [hsa-miR-6735-5p],-26.5%
7,UGUAAACAUCCUACACUCUCAGC [hsa-miR-30c-5p],21.9%
8,GGGUCCCGGGGAGGGGGG [hsa-miR-4281],25.6%
9,CGGGCCGGAGGUCAAGGGCGU [hsa-miR-6781-5p],54.4%
10,CAGUGAUCGUCUCUGCUGGC [hsa-miR-8079],-35%
11,AAACACCAUUGUCACACUCCAC [hsa-miR-3591-3p],-27%
12,ACCUUCCUCUCCAUGGGUCUUU [hsa-miR-3667-3p],-21.3%
13,UGGUAGACUAUGGAACGUAGG [hsa-miR-379-5p],-21.8%
14,UCGCGCCCCGGCUCCCGUUC [hsa-miR-1292-3p],9.03%
15,UGAAACUGGAGCGCCUGGAGGA [hsa-miR-4738-3p],-20.8%
16,GUUAGGGCCAACAUCUCUUGG [hsa-miR-2909],5.52%
17,AAGAUGUGGAAAAAUUGGAAUC [hsa-miR-576-3p],-7.01%
18,UUGCUAAGUAGGCUGAGAUUGA [hsa-miR-4639-5p],-11.6%
19,UGUCUAUACUCUGUCACUUUAC [hsa-miR-4796-5p],-19.7%
20,UUCACCCCUCUCACCUAAGCAG [hsa-miR-6802-3p],15.5%
21,AGACAGUAGUUCUUGCCUGGUU [hsa-miR-4645-3p],-25%
22,UGCCCUAAAUGCCCCUUCUGGC [hsa-miR-18b-3p],-9.28%
23,UGGCAGUGUAUUGUUAGCUGGU [hsa-miR-449a],-16.3%
24,UUGGCUGGUCUCUGCUCCGCAG [hsa-miR-6842-3p],-0.515%
25,CUGGGAGGGGCUGGGUUUGGC [hsa-miR-6779-5p],2.1%
26,CGCACCUGCCUCUCACCCACAG [hsa-miR-6804-3p],33.2%
27,UCUGGCUGUGCUGUAAUGCAG [hsa-miR-6504-5p],-5.01%
28,UGCCUAGGCUGAGACUGCAGUG [hsa-miR-3135a],1.84%
29,UGGGGGCUGGGAUGGGCCAUGGU [hsa-miR-6848-5p],-4.7%
30,ACUUCACCUGGUCCACUAGCCGU [hsa-miR-412],26%

# System: MCF10A
# Test: one-nucleolus phenotype percent effect (relative to siNT 0% and siNOL11 100%); higher = more cells with one nucleolus (ribosome biogenesis inhibition)
# Details: 20 nM; 72 h
# Description: as §1
row,Sequence,one-nucleolus phenotype percent effect
1,CCAGUAUUAACUGUGCUGCUGA [hsa-miR-16-1-3p],7.96%
2,CUGGGAGAAGGCUGUUUACUCU [hsa-miR-30c-2-3p],45.5%
3,UGUGUGUGUAGAGGAAGAAGGGA [hsa-miR-6867-5p],64.8%
4,UAACAGUCUACAGCCAUGGUCG [hsa-miR-132-3p],-5.13%
5,GAAGAAUAGGAGGGACUUUGU [hsa-miR-6507-5p],-12.9%
6,AGGUGGUCCGUGGCGCGUUCGC [hsa-miR-323a-5p],36.4%
7,CCUAGAAACUGUAAACUUAGUC [hsa-miR-8067],-35.3%
8,GCAGCAUUCAUGUCCC [hsa-miR-4310],-11%
9,UCUGGAUUGAAGAGACGACCCA [hsa-miR-6839-5p],2.28%
10,AGCAGCAUUGUACAGGGCUAUCA [hsa-miR-107],29.9%
11,CAUACAAUCUGACAUGUAUUU [hsa-miR-4666a-3p],-4.04%
12,ACUGGAAUUGGAGUCAAAA [hsa-miR-6128],-18.6%
13,UGAGGGAGUUGGGUGUAUA [hsa-miR-6129],18.8%
14,ACUGGGUAGGUGGGGCUCCAGG [hsa-miR-6861-5p],6.88%
15,UCUUACUCCCUCAGGCACUG [hsa-miR-550b-3p],1.54%
16,GGCAGGUUCUCACCCUCUCUAGG [hsa-miR-657],4.3%
17,GGCGGCGGGGAGGUAGGCAG [hsa-miR-8072],-6.87%
18,UAGGGAUGGGAGGCCAGGAUGA [hsa-miR-6757-5p],3.26%
19,CAGCCCGGAUCCCAGCCCACUU [hsa-miR-3940-3p],2.08%
20,AGCUACAUUGUCUGCUGGGUUUC [hsa-miR-221-3p],4%

row,Sequence,one-nucleolus phenotype percent effect
1,CUAGCACACAGAUACGCCCAGA [hsa-miR-585-5p],46%
2,UCCCCUGCUCCCUUGUUCCCCAG [hsa-miR-6810-3p],3.27%
3,GAAGGACACUGGUGUCAACGGCU [hsa-miR-8080],-9.1%
4,UUCUGGAUAACAUGCUGAAGCU [hsa-miR-5706],-32.6%
5,AACAUUCAACCUGUCGGUGAGU [hsa-miR-181c-5p],6.56%
6,AGGUUCUGUGAUACACUCCGACU [hsa-miR-152-5p],65.8%
7,GGGGUUCCUGGGGAUGGGAUUU [hsa-miR-23a-5p],-14%
8,UUUCCAUAGGUGAUGAGUCAC [hsa-miR-587],-21.6%
9,GAAGUGCUUCGAUUUUGGGGUGU [hsa-miR-373-3p],-22.2%
10,CUAUUAAGGACAUUUGUGAUUC [hsa-miR-4477a],-0.508%
11,UGACUGAGCUUCUCCCCACAG [hsa-miR-6857-3p],32.8%
12,UCAAGGCCAGAGGUCCCACAGCA [hsa-miR-3922-5p],6.44%
13,UCCGAACUCUCCAUUCCUCUGC [hsa-miR-6716-3p],-19.3%
14,CACCGACUCUGUCUCCUGCAG [hsa-miR-6510-3p],11.7%
15,CAGGGCAGAGGGCACAGGAAUCUGA [hsa-miR-6735-5p],11.3%
16,UGUAAACAUCCUACACUCUCAGC [hsa-miR-30c-5p],3.37%
17,GGGUCCCGGGGAGGGGGG [hsa-miR-4281],-17.2%
18,CGGGCCGGAGGUCAAGGGCGU [hsa-miR-6781-5p],-2.25%
19,CAGUGAUCGUCUCUGCUGGC [hsa-miR-8079],6.32%
20,AAACACCAUUGUCACACUCCAC [hsa-miR-3591-3p],32.5%

row,Sequence,one-nucleolus phenotype percent effect
1,ACCUUCCUCUCCAUGGGUCUUU [hsa-miR-3667-3p],18.2%
2,UGGUAGACUAUGGAACGUAGG [hsa-miR-379-5p],12.4%
3,UCGCGCCCCGGCUCCCGUUC [hsa-miR-1292-3p],-6.7%
4,UGAAACUGGAGCGCCUGGAGGA [hsa-miR-4738-3p],26.9%
5,GUUAGGGCCAACAUCUCUUGG [hsa-miR-2909],-6.14%
6,AAGAUGUGGAAAAAUUGGAAUC [hsa-miR-576-3p],17.9%
7,UUGCUAAGUAGGCUGAGAUUGA [hsa-miR-4639-5p],11.8%
8,UGUCUAUACUCUGUCACUUUAC [hsa-miR-4796-5p],45.9%
9,UUCACCCCUCUCACCUAAGCAG [hsa-miR-6802-3p],-11.2%
10,AGACAGUAGUUCUUGCCUGGUU [hsa-miR-4645-3p],18.2%
11,UGCCCUAAAUGCCCCUUCUGGC [hsa-miR-18b-3p],-2.3%
12,UGGCAGUGUAUUGUUAGCUGGU [hsa-miR-449a],36.9%
13,UUGGCUGGUCUCUGCUCCGCAG [hsa-miR-6842-3p],19.7%
14,CUGGGAGGGGCUGGGUUUGGC [hsa-miR-6779-5p],10.8%
15,CGCACCUGCCUCUCACCCACAG [hsa-miR-6804-3p],-33.9%
16,UCUGGCUGUGCUGUAAUGCAG [hsa-miR-6504-5p],6.53%
17,UGCCUAGGCUGAGACUGCAGUG [hsa-miR-3135a],2.6%
18,UGGGGGCUGGGAUGGGCCAUGGU [hsa-miR-6848-5p],7.99%
19,ACUUCACCUGGUCCACUAGCCGU [hsa-miR-412],-11.5%
